# Experiments:
# Assay in all cases: holdup assay
# Set-up in all cases: key: below the threshold = too weak to quantify, mostly under pKd 3.1 to 4
# APBA2_1, Q99767 = biological target: T1, APBA2_1, Q99767
# T1 sequence (Q99767 563-664, limits assumed, looked up): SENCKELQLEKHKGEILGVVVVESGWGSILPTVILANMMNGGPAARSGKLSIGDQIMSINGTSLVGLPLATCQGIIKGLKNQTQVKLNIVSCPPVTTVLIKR
# ARHGEF11, O15085 = biological target: T2, ARHGEF11, O15085
# T2 sequence (O15085 42-136, limits assumed, looked up): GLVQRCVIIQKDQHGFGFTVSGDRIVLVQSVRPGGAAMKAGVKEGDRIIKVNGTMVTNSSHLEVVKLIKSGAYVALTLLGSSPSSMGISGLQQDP
# DLG1_1, Q12959 = biological target: DLG1_1, Q12959
# DLG3_1, Q92796 = biological target: T3, DLG3_1, Q92796
# T3 sequence (Q92796 125-227, limits assumed, looked up): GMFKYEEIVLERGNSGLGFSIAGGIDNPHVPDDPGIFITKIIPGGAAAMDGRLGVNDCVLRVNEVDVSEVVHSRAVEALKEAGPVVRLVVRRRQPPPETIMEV
# DLG4_1, P78352 = biological target: DLG4_1, P78352
# Sequence of DLG4_1, P78352 (P78352 62-152): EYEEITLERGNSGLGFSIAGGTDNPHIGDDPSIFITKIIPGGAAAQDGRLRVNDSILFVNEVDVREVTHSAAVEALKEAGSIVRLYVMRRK
# DVL3, Q92997 = biological target: T4, DVL3, Q92997
# T4 sequence (Q92997 244-331, limits assumed, looked up): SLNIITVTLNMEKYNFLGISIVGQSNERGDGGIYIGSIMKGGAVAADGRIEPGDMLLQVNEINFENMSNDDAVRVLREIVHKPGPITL
# FRMPD2_3, Q68DX3 = biological target: FRMPD2_3, Q68DX3
# Sequence of FRMPD2_3, Q68DX3 (Q68DX3 1073-1166): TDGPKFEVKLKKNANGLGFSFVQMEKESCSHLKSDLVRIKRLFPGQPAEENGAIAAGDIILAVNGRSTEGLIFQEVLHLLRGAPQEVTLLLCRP
# FRMPD4, Q14CM0 = biological target: FRMPD4, Q14CM0
# Sequence of FRMPD4, Q14CM0 (Q14CM0 67-160): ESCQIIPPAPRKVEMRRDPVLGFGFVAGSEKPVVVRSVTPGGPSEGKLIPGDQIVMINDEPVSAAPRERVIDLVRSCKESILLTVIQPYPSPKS
# GRIP1_3, Q9Y3R0 = biological target: T5, GRIP1_3, Q9Y3R0
# T5 sequence (Q9Y3R0 247-346, limits assumed, looked up): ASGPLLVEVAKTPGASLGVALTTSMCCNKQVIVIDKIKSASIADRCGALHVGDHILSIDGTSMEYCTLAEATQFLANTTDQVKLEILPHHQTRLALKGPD
# GRIP1_5, Q9Y3R0 = biological target: T6, GRIP1_5, Q9Y3R0
# T6 sequence (Q9Y3R0 568-668, limits assumed, looked up): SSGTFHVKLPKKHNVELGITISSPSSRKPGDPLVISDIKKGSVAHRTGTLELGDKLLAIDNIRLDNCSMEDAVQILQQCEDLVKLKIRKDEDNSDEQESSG
# GRIP2_5, Q9C0E4 = biological target: GRIP2_5, Q9C0E4
# Sequence of GRIP2_5, Q9C0E4 (Q9C0E4 544-642): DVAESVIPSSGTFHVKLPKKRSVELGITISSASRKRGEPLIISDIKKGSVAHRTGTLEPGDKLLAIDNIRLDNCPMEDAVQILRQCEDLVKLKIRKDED
# HTRA4, P83105 = biological target: T7, HTRA4, P83105
# T7 sequence (P83105 378-476, limits assumed, looked up): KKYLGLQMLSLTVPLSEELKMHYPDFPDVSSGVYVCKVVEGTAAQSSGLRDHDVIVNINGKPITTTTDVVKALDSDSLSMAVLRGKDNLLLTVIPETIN
# Inadl_2, Q8NI35 = biological target: Inadl_2, Q8NI35
# Sequence of Inadl_2, Q8NI35 (Q8NI35 238-335): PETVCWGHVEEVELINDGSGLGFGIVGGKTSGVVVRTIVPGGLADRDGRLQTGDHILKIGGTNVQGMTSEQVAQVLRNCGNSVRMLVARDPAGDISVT
# Inadl_4, Q8NI35 = biological target: Inadl_4, Q8NI35
# Sequence of Inadl_4, Q8NI35 (Q8NI35 547-651): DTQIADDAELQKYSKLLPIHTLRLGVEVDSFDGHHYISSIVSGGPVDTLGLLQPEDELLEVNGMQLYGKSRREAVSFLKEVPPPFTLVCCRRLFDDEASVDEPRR
# Inadl_5, Q8NI35 = biological target: Inadl_5, Q8NI35
# Sequence of Inadl_5, Q8NI35 (Q8NI35 673-780): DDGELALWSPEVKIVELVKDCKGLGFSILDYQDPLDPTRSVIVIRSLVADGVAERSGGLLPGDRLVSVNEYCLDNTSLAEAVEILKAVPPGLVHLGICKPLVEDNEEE
# Inadl_6, Q8NI35 = biological target: Inadl_6, Q8NI35
# Sequence of Inadl_6, Q8NI35 (Q8NI35 1058-1167): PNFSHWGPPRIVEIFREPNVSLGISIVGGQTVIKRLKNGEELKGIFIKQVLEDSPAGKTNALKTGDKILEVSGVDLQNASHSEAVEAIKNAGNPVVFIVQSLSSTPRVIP
# LDB3, O75112 = biological target: LDB3, O75112
# Sequence of LDB3, O75112 (O75112 1-94): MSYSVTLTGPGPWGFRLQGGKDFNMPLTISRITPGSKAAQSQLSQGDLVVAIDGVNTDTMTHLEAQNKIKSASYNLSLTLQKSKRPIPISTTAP
# LNX2_2, Q8N448 = biological target: T8, LNX2_2, Q8N448
# T8 sequence (Q8N448 334-432, limits assumed, looked up): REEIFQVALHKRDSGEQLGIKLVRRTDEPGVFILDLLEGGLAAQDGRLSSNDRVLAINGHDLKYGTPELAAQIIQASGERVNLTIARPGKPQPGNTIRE
# MAGI1_1, Q96QZ7 = biological target: MAGI1_1, Q96QZ7
# Sequence of MAGI1_1, Q96QZ7 (Q96QZ7 1-106): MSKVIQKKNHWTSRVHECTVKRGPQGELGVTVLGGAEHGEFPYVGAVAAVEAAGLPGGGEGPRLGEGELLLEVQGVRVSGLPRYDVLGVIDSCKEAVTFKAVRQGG
# MAGI1_2, Q96QZ7 = biological target: MAGI1_2, Q96QZ7
# Sequence of MAGI1_2, Q96QZ7 (Q96QZ7 456-580): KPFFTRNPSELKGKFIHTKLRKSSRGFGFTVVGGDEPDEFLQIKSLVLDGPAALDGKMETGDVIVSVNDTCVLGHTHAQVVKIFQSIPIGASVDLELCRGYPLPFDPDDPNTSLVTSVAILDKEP
# MAGI2_4, Q86UL8 = biological target: MAGI2_4, Q86UL8
# Sequence of MAGI2_4, Q86UL8 (Q86UL8 772-865): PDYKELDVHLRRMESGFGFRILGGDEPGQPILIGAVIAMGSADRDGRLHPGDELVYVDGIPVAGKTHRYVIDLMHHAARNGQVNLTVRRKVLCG
# MAGI2_6, Q86UL8 = biological target: MAGI2_6, Q86UL8
# Sequence of MAGI2_6, Q86UL8 (Q86UL8 1141-1229): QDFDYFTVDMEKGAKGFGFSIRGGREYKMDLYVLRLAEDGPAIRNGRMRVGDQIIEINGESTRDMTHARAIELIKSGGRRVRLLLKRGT
# NHERF3_1, Q5T2W1 = biological target: T9, NHERF3_1, Q5T2W1
# T9 sequence (Q5T2W1 4-100, limits assumed, looked up): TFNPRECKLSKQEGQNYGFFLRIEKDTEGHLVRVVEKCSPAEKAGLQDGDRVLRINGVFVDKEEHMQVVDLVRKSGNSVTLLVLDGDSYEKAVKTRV
# PDZRN4_1, Q6ZMN7 = biological target: PDZRN4_1, Q6ZMN7
# Sequence of PDZRN4_1, Q6ZMN7 (Q6ZMN7 213-318): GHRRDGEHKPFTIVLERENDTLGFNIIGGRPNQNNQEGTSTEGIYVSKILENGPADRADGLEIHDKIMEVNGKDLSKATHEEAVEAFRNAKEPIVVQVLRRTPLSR
# RHPN1, Q8TCX5 = biological target: T10, RHPN1, Q8TCX5
# T10 sequence (Q8TCX5 508-602, limits assumed, looked up): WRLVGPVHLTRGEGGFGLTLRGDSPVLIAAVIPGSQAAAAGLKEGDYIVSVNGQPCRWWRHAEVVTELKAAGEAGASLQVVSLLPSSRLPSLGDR
# SNTG1, Q9NSN8 = biological target: T11, SNTG1, Q9NSN8
# T11 sequence (Q9NSN8 52-150, limits assumed, looked up): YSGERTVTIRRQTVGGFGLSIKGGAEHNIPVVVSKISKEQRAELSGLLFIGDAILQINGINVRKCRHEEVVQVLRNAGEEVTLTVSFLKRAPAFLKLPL
# TJP2_1, Q9UDY2 = biological target: TJP2_1, Q9UDY2
# Sequence of TJP2_1, Q9UDY2 (Q9UDY2 24-128): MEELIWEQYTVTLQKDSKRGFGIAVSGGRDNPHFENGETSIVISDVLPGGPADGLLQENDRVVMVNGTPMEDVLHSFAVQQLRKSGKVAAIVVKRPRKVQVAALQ
# [1] = plain residues with an end cap or a label only (N-terminal biotin on a linker: ado-ado)
# [2] = plain residues with an end cap or a label only (N-terminal biotin on a linker: none)
# [3] = plain residues with an end cap or a label only (N-terminal biotin on a linker: ttds)
binder,measurement,setting,value
"LHLHGTGIQV [EPHA7, Q15375]",pKd,"APBA2_1, Q99767; [1]",below the threshold
same,pKd,"ARHGEF11, O15085; [1]",4.51
same,pKd,"DLG1_1, Q12959; [1]",below the threshold
same,pKd,"DLG3_1, Q92796; [1]",below the threshold
same,pKd,"DLG4_1, P78352; [1]",3.73
same,pKd,"DVL3, Q92997; [1]",below the threshold
same,pKd,"FRMPD2_3, Q68DX3; [1]",below the threshold
same,pKd,"FRMPD4, Q14CM0; [1]",3.97
same,pKd,"GRIP1_3, Q9Y3R0; [1]",below the threshold
same,pKd,"GRIP1_5, Q9Y3R0; [1]",below the threshold
same,pKd,"GRIP2_5, Q9C0E4; [1]",3.55
same,pKd,"HTRA4, P83105; [1]",4.1
same,pKd,"Inadl_2, Q8NI35; [1]",below the threshold
same,pKd,"Inadl_4, Q8NI35; [1]",below the threshold
same,pKd,"Inadl_5, Q8NI35; [1]",4.04
same,pKd,"Inadl_6, Q8NI35; [1]",below the threshold
same,pKd,"LDB3, O75112; [1]",below the threshold
same,pKd,"LNX2_2, Q8N448; [1]",5.03
same,pKd,"MAGI1_1, Q96QZ7; [1]",3.59
same,pKd,"MAGI1_2, Q96QZ7; [1]",below the threshold
same,pKd,"MAGI2_4, Q86UL8; [1]",3.83
same,pKd,"MAGI2_6, Q86UL8; [1]",below the threshold
same,pKd,"NHERF3_1, Q5T2W1; [1]",below the threshold
same,pKd,"PDZRN4_1, Q6ZMN7; [1]",3.57
same,pKd,"RHPN1, Q8TCX5; [1]",below the threshold
same,pKd,"SNTG1, Q9NSN8; [1]",3.57
same,pKd,"TJP2_1, Q9UDY2; [1]",below the threshold
"DSKPPLPPDEWV [MERS-E, K9N5R3]",pKd,"APBA2_1, Q99767; [2]",below the threshold
same,pKd,"ARHGEF11, O15085; [2]",3.91
same,pKd,"DLG1_1, Q12959; [2]",below the threshold
same,pKd,"DLG3_1, Q92796; [2]",below the threshold
same,pKd,"DLG4_1, P78352; [2]",3.62
same,pKd,"DVL3, Q92997; [2]",3.78
same,pKd,"FRMPD2_3, Q68DX3; [2]",3.53
same,pKd,"FRMPD4, Q14CM0; [2]",4.07
same,pKd,"GRIP1_3, Q9Y3R0; [2]",below the threshold
same,pKd,"GRIP1_5, Q9Y3R0; [2]",3.68
same,pKd,"GRIP2_5, Q9C0E4; [2]",below the threshold
same,pKd,"HTRA4, P83105; [2]",3.68
same,pKd,"Inadl_2, Q8NI35; [2]",below the threshold
same,pKd,"Inadl_4, Q8NI35; [2]",below the threshold
same,pKd,"Inadl_5, Q8NI35; [2]",3.74
same,pKd,"Inadl_6, Q8NI35; [2]",3.81
same,pKd,"LDB3, O75112; [2]",below the threshold
same,pKd,"LNX2_2, Q8N448; [2]",4.44
same,pKd,"MAGI1_1, Q96QZ7; [2]",below the threshold
same,pKd,"MAGI1_2, Q96QZ7; [2]",below the threshold
same,pKd,"MAGI2_4, Q86UL8; [2]",3.73
same,pKd,"MAGI2_6, Q86UL8; [2]",4.75
same,pKd,"NHERF3_1, Q5T2W1; [2]",below the threshold
same,pKd,"PDZRN4_1, Q6ZMN7; [2]",3.49
same,pKd,"RHPN1, Q8TCX5; [2]",below the threshold
same,pKd,"SNTG1, Q9NSN8; [2]",3.87
same,pKd,"TJP2_1, Q9UDY2; [2]",3.84
"HRTCYLVTQL [ASIC3, Q9UHC3]",pKd,"APBA2_1, Q99767; [3]",below the threshold
same,pKd,"ARHGEF11, O15085; [3]",4.83
same,pKd,"DLG1_1, Q12959; [3]",3.97
same,pKd,"DLG3_1, Q92796; [3]",3.34
same,pKd,"DLG4_1, P78352; [3]",3.78
same,pKd,"DVL3, Q92997; [3]",3.3
same,pKd,"FRMPD2_3, Q68DX3; [3]",below the threshold
same,pKd,"FRMPD4, Q14CM0; [3]",3.77
same,pKd,"GRIP1_3, Q9Y3R0; [3]",below the threshold
same,pKd,"GRIP1_5, Q9Y3R0; [3]",below the threshold
same,pKd,"GRIP2_5, Q9C0E4; [3]",4.31
same,pKd,"HTRA4, P83105; [3]",4.83
same,pKd,"Inadl_2, Q8NI35; [3]",below the threshold
same,pKd,"Inadl_4, Q8NI35; [3]",below the threshold
same,pKd,"Inadl_5, Q8NI35; [3]",below the threshold
same,pKd,"Inadl_6, Q8NI35; [3]",4.23
same,pKd,"LDB3, O75112; [3]",below the threshold
same,pKd,"LNX2_2, Q8N448; [3]",below the threshold
same,pKd,"MAGI1_1, Q96QZ7; [3]",3.5
same,pKd,"MAGI1_2, Q96QZ7; [3]",4.83
same,pKd,"MAGI2_4, Q86UL8; [3]",3.75
same,pKd,"MAGI2_6, Q86UL8; [3]",4.11
same,pKd,"NHERF3_1, Q5T2W1; [3]",4.8
same,pKd,"PDZRN4_1, Q6ZMN7; [3]",4.24
same,pKd,"RHPN1, Q8TCX5; [3]",4.46
same,pKd,"SNTG1, Q9NSN8; [3]",3.72
same,pKd,"TJP2_1, Q9UDY2; [3]",3.89

# From paper PMC9482650, “Quantitative fragmentomics allow affinity mapping of interactomes” (Nature Communications, 2022)
